Results on 52 sequences are retold here after the supplement of paper PMC10567573.

The series can be described thus: protein stability index of a GFP-peptide fusion (GPS, HEK-293T) (PSI 1-6); higher = more stable. To be noted: c terminus: a fixed tail appended.

± gives the standard deviation.
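Note: 24-mer peptide tiles fused after GFP, lentivirally expressed, FACS-sorted into six equal bins by GFP/DsRed ratio, decoded by Illumina sequencing, PSI is the read-weighted mean bin number.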

On to CSSSDDDTDVDMEGLRRRRGREAG [PBXIP1], for which the protein stability index was found to be 5.3 ± 0.28 (treatment: DMSO) and 5.26 ± 0.21 (treatment: MLN4924 1 uM, 8 h).
For CVPAHPPPCAWACPVPAHRRGSWR [CTBP1-DT], the protein stability index by setting is: (treatment: DMSO) 2.56 ± 0.19; (treatment: MLN4924 1 uM, 8 h) 2.77 ± 0.18.
The like results for CVQCGKSYSQSSNLFRHQRRHNAE [ZNF24] were, in that order, 4 ± 0.16 and 4.42 ± 0.42.
The like results for CYRENTHQTLKCSALATQYMHCVN [CHCHD3] were, in that order, 2.17 ± 0.47 and 2.26 ± 0.43.
The like results for DAILYYYQSGGRLKRPVNVPFDIF [KCNA4] were, in that order, 2.58 ± 0.54 and 2.52 ± 0.63.
As to DAKDAARDMNGKSLDGKAIKVEQA [RBMX], the protein stability index turned out to be 5.36 ± 0.41 (treatment: DMSO) and 5.37 ± 0.39 (treatment: MLN4924 1 uM, 8 h).
With DCSGLVLLCLFFGIPWEAGARQIS [PCDHGA10], the protein stability index was determined as 3.45 ± 0.4 (treatment: DMSO) and 3.19 ± 0.2 (treatment: MLN4924 1 uM, 8 h).
With DDAGTSGGPSSPPSDPPAMSPGPL [C2CD2L], the protein stability index runs as follows: (treatment: DMSO) 5.38 ± 0.38; (treatment: MLN4924 1 uM, 8 h) 5.37 ± 0.32.
The like results for DDEEVDTHFASQEFFSANAISDQL [ADAMTSL2] were, in that order, 5.27 ± 0.23 and 5.21 ± 0.15.
For the sequence DDVEVLTLKKFKGDLAYRRQEYQK [C8orf76], the protein stability index is 3.78 ± 0.18 (treatment: DMSO) and 3.92 ± 0.31 (treatment: MLN4924 1 uM, 8 h).
Regarding DETLSSSHQKCPQLGGPEASGGLV [PLEKHN1], the protein stability index reads like this: (treatment: DMSO) 4.97 ± 0.1; (treatment: MLN4924 1 uM, 8 h) 4.8 ± 0.31.
For the sequence DFHYCDREHVCRKDQRNPPSLGRV [RBMY1A1], the protein stability index is 3.27 ± 0.27 (treatment: DMSO) and 3.8 ± 0.4 (treatment: MLN4924 1 uM, 8 h).
Regarding DGAISAHKPLLICSCEWMAAMFGG [RHOBTB1], the protein stability index was 2.25 ± 0.29 (treatment: DMSO) and 2.3 ± 0.15 (treatment: MLN4924 1 uM, 8 h).
The like results for DHARGKSQVALKIIRNVGKYREAA [CLK3] were, in that order, 3.15 ± 0.18 and 3.33 ± 0.19.
With DHCAQQDHGCEQLCLNTEDSFVCQ [MATN2], the protein stability index turned out to be 5 ± 0.075 (treatment: DMSO) and 5.08 ± 0.16 (treatment: MLN4924 1 uM, 8 h).
DHKEPKEEINKNISDFGRQQLLPP [EHMT1] registered a protein stability index (treatment: DMSO) of 5.1 ± 0.2 and a protein stability index (treatment: MLN4924 1 uM, 8 h) of 5.16 ± 0.21.
As for DHSSQSEEEVVEGEKEVEALKKSA [BNIP3L], the protein stability index was 5.5 ± 0.36 (treatment: DMSO) and 5.67 ± 0.26 (treatment: MLN4924 1 uM, 8 h).
Regarding DITRYYLCLQLRDDIVSGRLPCSF [EPB41L3], the protein stability index came to 2.97 ± 0.57 (treatment: DMSO) and 2.63 ± 0.5 (treatment: MLN4924 1 uM, 8 h).
The like results for DIYYNNMEEVCGGEKPYLSPDILE [ATL3] were, in that order, 3.72 ± 0.57 and 3.59 ± 0.27.
The like results for DKFQWLAGLAPPSLFARAMQVLVT [ANKRD9] were, in that order, 2.56 ± 0.44 and 2.29 ± 0.15.
As to DKMEGNPICVQIPWDKNPEALAKW [CRY1], the protein stability index is, setting by setting: (treatment: DMSO) 4.54 ± 0.094; (treatment: MLN4924 1 uM, 8 h) 4.33 ± 0.24.
The like results for DKRRDLAHLAAEVEGKCLQSGFEM [TRIM39] were, in that order, 3.97 ± 0.18 and 4.03 ± 0.36.
The like results for DKVRALEEANADLEVKIHDWYQKQ [KRT15] were, in that order, 4.4 ± 0.24 and 4.3 ± 0.36.
The like results for DLAALKQRLEEETRKREDAEHNLV [PRPH] were, in that order, 4.96 ± 0.46 and 4.6 ± 0.4.
For the sequence DLKARIDQNTVVTRQLSEENANLQ [MTUS2], the protein stability index is, setting by setting: (treatment: DMSO) 4.83 ± 0.14; (treatment: MLN4924 1 uM, 8 h) 4.93 ± 0.083.
Consider DLLHGPECRSSVTSDSEGAHVNTL [PHTF1], for which the protein stability index is 4.33 ± 0.14 (treatment: DMSO) and 4.61 ± 0.35 (treatment: MLN4924 1 uM, 8 h).
Turning to DLLKFEKKFQSEKAAGSVSKSTQF [FIS1], the protein stability index reads like this: (treatment: DMSO) 3.82 ± 0.18; (treatment: MLN4924 1 uM, 8 h) 3.53 ± 0.18.
Consider DLNKDKPVIPAAALAGYTGSGPIQ [ETS1], for which the protein stability index was determined as 4.2 ± 0.13 (treatment: DMSO) and 4.14 ± 0.25 (treatment: MLN4924 1 uM, 8 h).
The like results for DLRSGTLYSLTLYGLRGPHKADSI [TNXB] were, in that order, 2.16 ± 0.48 and 1.95 ± 0.27.
For the sequence DLSSESSIKKKFLKRKGKTDSPWI [EHMT1], the protein stability index amounted to 3.42 ± 0.37 (treatment: DMSO) and 3.66 ± 0.26 (treatment: MLN4924 1 uM, 8 h).
The like results for DLVLHTNYTATVRGLRGPNLTSPA [TNXB] were, in that order, 2.79 ± 0.31 and 2.71 ± 0.32.
The like results for DLVQWTRHMEAVKAQLLEQAQGQL [SOAT2] were, in that order, 2.62 ± 0.56 and 2.69 ± 0.24.
Turning to DNIKYQPKGGQVQIVTKKIDLSHV [MAP2], the protein stability index is, setting by setting: (treatment: DMSO) 3.34 ± 0.38; (treatment: MLN4924 1 uM, 8 h) 3.47 ± 0.3.
On to DPHNSRRGFFFSHVGWLLVRKHPA [SCD], for which the protein stability index by setting is: (treatment: DMSO) 2.33 ± 0.27; (treatment: MLN4924 1 uM, 8 h) 2.3 ± 0.35.
The like results for DQGGPVEILPFLYLGSAYHASKCE [DUSP5] were, in that order, 2.34 ± 0.27 and 2.43 ± 0.14.
As to DRAAKRLSLESEGAGEGAAASPEL [TPPP], the protein stability index by setting is: (treatment: DMSO) 5.38 ± 0.14; (treatment: MLN4924 1 uM, 8 h) 5.32 ± 0.37.
The like results for DRERQPLLDRARGAAAQGQTQTVA [PI4K2A] were, in that order, 5.22 ± 0.18 and 5.13 ± 0.28.
The like results for DRFYVINYLVRLSFHNLKFDCSTA [ZNF277] were, in that order, 2.98 ± 0.88 and 2.54 ± 0.43.
With DRTWTLCGTPEYLAPEVIQSKGHG [PRKX], the protein stability index reads like this: (treatment: DMSO) 3.91 ± 0.48; (treatment: MLN4924 1 uM, 8 h) 3.97 ± 0.35.
The like results for DRYIAICNPLRYSVLMGHGVCMGL [OR10K2] were, in that order, 2.54 ± 0.27 and 2.43 ± 0.43.
The like results for DSGFLGLRPTSVDPALRRRRRGPR [NOP53] were, in that order, 5.15 ± 0.4 and 5.17 ± 0.25.
In the case of DSLHPRPPYLPLAVPEDLADRLVR [FUT8], the protein stability index came to 4.14 ± 0.13 (treatment: DMSO) and 4.06 ± 0.14 (treatment: MLN4924 1 uM, 8 h).
Take DSRRIFVGQDNGAVMEFHVSEDFN [WDFY1]: the protein stability index stood at 4.07 ± 0.32 (treatment: DMSO) and 4.22 ± 0.11 (treatment: MLN4924 1 uM, 8 h).
The like results for DTELLGQATLPVGSPSRPLSRRQL [C2CD2L] were, in that order, 4.74 ± 0.18 and 4.81 ± 0.15.
The like results for DTGVGKSSIVWRFVEDSFDPNINP [RAB22A] were, in that order, 2.93 ± 0.28 and 3.08 ± 0.29.
Sequence DVHHGNGTQHMFEDDPSVLYVSLH [HDAC6] had a protein stability index (treatment: DMSO) of 2.97 ± 0.34 and a protein stability index (treatment: MLN4924 1 uM, 8 h) of 2.93 ± 0.31.
The like results for DVKDWWLFGFYFCMPLVCTAIFYT [EDNRA] were, in that order, 2.76 ± 0.45 and 3.56 ± 0.84.
DVLKYSYVRLVCKDVRAPSRPAVG [ZSWIM9]: the protein stability index stood at 2.25 ± 0.26 (treatment: DMSO) and 1.83 ± 0.22 (treatment: MLN4924 1 uM, 8 h).
The like results for DVQNKLKESAQCVGDEFLNCKLAT [SNX8] were, in that order, 3.43 ± 0.21 and 3.42 ± 0.24.
The like results for DWGPCSGSCGQGRTIRHVYCKTSD [ADAMTSL2] were, in that order, 3.43 ± 0.25 and 3.44 ± 0.33.
On to DYDDGFSMKHTATARFQRNHRLIS [SMARCE1], for which the protein stability index is 2.99 ± 0.1 (treatment: DMSO) and 3.19 ± 0.31 (treatment: MLN4924 1 uM, 8 h).
Regarding DYFERNWEPRRDMWVRFRAFEAAR [ZSWIM9], the protein stability index came out at 2.56 ± 0.12 (treatment: DMSO) and 2.66 ± 0.32 (treatment: MLN4924 1 uM, 8 h).
